Results published in patent publication CN111995685A (SHANGHAI INST MATERIA MEDICA CAS; UNIV XIAMEN, dated 2020).

B1: T1# (antibody, V domains shown)
VH: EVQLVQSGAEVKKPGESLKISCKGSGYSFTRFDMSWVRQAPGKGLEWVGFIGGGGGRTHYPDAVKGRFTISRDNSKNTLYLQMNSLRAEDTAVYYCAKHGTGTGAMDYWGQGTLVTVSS
VL: EIVLTQSPGTLSLSPGERATLSCRASKSVDNYGYSFMHWYQQKPGQAPRLLIYRSANLASGVPSRFSGSGSGTDFTLTINSLEAEDAATYYCQQSNEDPTFGGGTKVEIK
notes: also called 抗PD-1单抗T1#; 人源化PD-1抗体T1#
B2: T16# (antibody, V domains shown)
VH: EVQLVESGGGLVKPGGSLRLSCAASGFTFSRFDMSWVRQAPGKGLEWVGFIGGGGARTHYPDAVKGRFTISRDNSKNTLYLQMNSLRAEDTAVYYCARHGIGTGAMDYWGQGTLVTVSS
VL: ETTLTQSPAFMSATPGDKVNISCRASKSVDNYGYSFMHWYQQKPGQAPRLLIYRSANLASGVPDRFSGSGSGTDFTLKISRVEAEDVGVYYCQQSNEDPTFGGGTKLEIK
notes: also called 抗PD-1单抗T16#
B3: T82# (antibody, V domains shown)
VH: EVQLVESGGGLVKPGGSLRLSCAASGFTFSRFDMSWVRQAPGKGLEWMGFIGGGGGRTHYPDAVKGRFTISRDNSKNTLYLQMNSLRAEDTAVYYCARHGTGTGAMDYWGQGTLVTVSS
VL: DIQMTQSPSTLSASVGDRVTISCRASKSVDNYGYSFMHWYQQKPGQAPRLLIYRSANLASGVPDRFSGSGSGTDFTLTISSLQAEDVAVYYCQQSNEDPTFGGGTKLEIK
notes: also called 抗PD-1单抗T82#

How the values were obtained:
[1] = molecular target: T1, 抗原人源PD-1蛋白 (human, UniProt Q15116 25-167, limits assumed); experiment: ELISA of humanised Fab phage clones on PD-1 antigen
T1 construct: The construct is not described; also called 抗原PD-1; 抗原PD-1蛋白

[2] = molecular target: T1, 抗原人源PD-1蛋白; experiment: ELISA (binding and PD-L1 blocking) and BLI with PD-1 antigen, IgG format

T1 sequence (Q15116 25-167 limits assumed): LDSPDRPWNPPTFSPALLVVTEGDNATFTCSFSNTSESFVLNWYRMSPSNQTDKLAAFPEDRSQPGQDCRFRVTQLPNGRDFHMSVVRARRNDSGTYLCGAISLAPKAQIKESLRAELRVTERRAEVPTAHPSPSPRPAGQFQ

| Binder | binding result [1] | binding result [2] |
| --- | --- | --- |
| B1 | binds |  |
| B2 |  | binds |
| B3 |  | binds |
